Results published in FireProtDB (doi:10.1002/prot.20496).
Several values for one entry are separate records, joined by “and”; a condition that tells them apart may be missing. Identical values can stand only once.

B1: Alpha-lactalbumin, P00712 (parent)
chain: MMSFVSLLLVGILFHATQAEQLTKCEVFQKLKDLKDYGGVSLPEWVCTAFHTSGYDTQAIVQNNDSTEYGLFQINNKIWCKDDQNPHSRNICNISCDKFLDDDLTDDIVCAKKILDKVGINYWLAHKALCSEKLDQWLCEKL

Variants of: B1
Details: Capra hircus, pH 7.5, Thermal, Tris-HCl 10 mM, CaCl2 2 mM, structure 1HFY, whole UniProt chain shown

For MMSFVSLLLVGILFHATQAEQLTKCEVFQKLKDLKDYGGVSLPEWVCTAFHTSGYDTQAIVQNNDSTEYGLFQINNKIWCKDDQNPHSRNICNISCDKFLDDDLTDDIVCAKKILDKVGINYWLAHKALCSEKLDQFLCEKL [W137F], the Tm (DSC) was 71.5 °C and the “change of melting temperature, mutant - wild type (higher = more stable)” value (“change of melting temperature, mutant” for short) (DSC) was 0.4 °C.

In the case of MMSFVSLLLVGILFHATQAEQLTKCEVFQKLKDLKDYGGVSLPEWVCTAFHTSGYDTQAIVQNNDSTEYGLFQINNKIFCKDDQNPHSRNICNISCDKFLDDDLTDDIVCAKKILDKVGINYWLAHKALCSEKLDQFLCEKL [W79F W137F], the Tm (DSC) is reported as 68.1 °C, the “change of melting temperature, mutant” value (DSC) is reported as -3 °C and the Tm (Fluorescence) is reported as 71 °C and 68 °C. The “change of melting temperature, mutant” value (Fluorescence) was -0.2 °C and -1.9 °C.

With MMSFVSLLLVGILFHATQAEQLTKCEVFQKLKDLKDYGGVSLPEWVCTAFHTSGYDTQAIVQNNDSTEYGLFQINNKIFCKDDQNPHSRNICNISCDKFLDDDLTDDIVCAKKILDKVGINYWLAHKALCSEKLDQWLCEKL [W79F] the Tm (DSC) was 67.9 °C, the “change of melting temperature, mutant” value (DSC) was -3.2 °C and the Tm (Fluorescence) was 69.2 °C. The “change of melting temperature, mutant” value (Fluorescence) was -2 °C.
